Test results published in the DeepSol protein solubility set.

Assay: soluble on expression in E. coli; label from the status in PepcDB or PDB records

| Sequence | soluble on expression in E. coli |
| --- | --- |
| MAHHHHHHMTPTSAITTSAPATATTAEQTPLPPEQTSMFDAPGTPTPAVSAASARATGAQDSSTLMEGAKTETTKQNLAMKGLDRWMKMQLPADWMECIRQNLQLDKHGQPMHAVTEMKDAIPLLITPLTGDVKFFPYFVCSMDVAVRYHYVIQNERDPDTTAVIDDLQRRFGNSGRLLVVRNRYNRGYSGSMNQAFEWALKERTAEEVPWVFACGVDAIFEPGLLAKMIEVVQQNTRGDAAMLAALRAEVELEERLVREGNYSYYERWAPRGRPLKVLRSGYPGVPLNVRTAPLLPDRIRYTVADENRESGIVRPAELRTRFFGNYVATVTPVPDALGTIAVTRLALSAVGYFDENYFPAYMDDIDLRWRHFAYGFGALHGERNGPVTRWHHYNAANLRGSPFVDPDLEKYGTEDNYSRRAFLSYIRRSKGIYDKLKYGPRDMDGVWRQAAQKAEFKYSSFNVSHYPADTWVLDEDARGCMFHHTYNYKTQNWSRPSDCSYNPRTLEESGILGVDQLASYRSMLAEKAFAYQ | not soluble |
| SLYRIVLGKVSTLSAAPLPPGLREQAPQGPRRERWLAGRALLSHTLSPLPEIIYGEQGKPAFAPETPLWFNLSHSGDDIALLLSDEGEVGCDIEVIRPRANWRWLANAVFSLGEHAEMDAVHPDQQLEMFWRIWTRKEAIVKQRGGSAWQIVSVDSTYHSSLSVSHCQLENLSLAICTPTPFTLTADSVQWIDSVN | not soluble |
| MLHLVLYQPEIPQNAGNVARTAAALGWPLHLIRPLGFLLSSPKLKRAGLDYWPHVDLRLHDSFAAFLEALPRGARVFAFSARGEASLYEARFREGDYLLFGPESRGLPEEVLARFPTLKIPMPGPVRSLNLAVAVGVAAYEAYRQLTGR | soluble |
| MPNSKKSKKGGDQQHVTIVPVEPVKGENVDTVAYSSRSRISGESGHLIADVQSPHAKKHRIIFDRDHNVFEFRLLDGSAKHIIVYRLDELLSTTCYPFKIKNGVPIIPTKPTTSDKTLYFNFVYKKDKQKWRLKQIPVIFYTTSERDYWHSLIDTTLRRVKNRPKNIIIFINPFGGNGKAQKIFKDNVDAFFWLTPGLRYKVVLTERANHARDYIVEMPPEQWSAIDGLVSVGGDGLFNELLSGALLRTQTDAGRNIDNPSSHLVTPHIRFGIIGAGSANSIVSTVHETNDHATSAVHIAIGSECNVDVCTVHQHQKLIRISANAISYGWLGDVLRDSEEYRCLGPIRYQWSALRTTIRHPIYRGMVQFSLSHKENVNPKDQLPPCLEPCPVCMKPQGNDKYDYHWHAEFTHVICCVIPTVTPFTPYGLAPFTGIGDGTLDLALVPRISRFHNMQFMRKVAMYGGKQLYELDPSLNCYRVTKWSYQPDADQEDPGVWNLDGEILEQPKDEPLHFKLHPQLISFFGRDAAMVKPTKRSFIKKRKSSIVYQ | not soluble |
| MYGVLVIGAPGAGKSTFCAGLTDIFSQTKRPFLTINLDPANDTMAYAPDVNITEMITVNDVMDRLGLGPNGALKYCIETLGANCNWLLQKIEANHKKYLIIDCPGQLELYKSEGELWKVIRFLEKSGVRLCALHLADSLYCSDPSKFISVALSTLATMVTMEMPQVNCLSKADLFSEDGTYDLEFFSHLPDVNRLLDLLNEVPGLEKYRKLNEAICGVISDFDLVSFVPLAVENKESMMKVIQMVDAANGFSLTEQGDIRELILNSKA | not soluble |
| FLPMSREEMDQLGWDACDFILVCGDAYIDHPSFVSGIIGRVLEAQGFRVGIIAQPDWTNVESFRVLGKPTIAWGVTAGNMDSMINRYTADRKIRSDDAYSPNNEPNKRPDRAATVYCQRCREAFPDVPVLLGGIEGSLRRIAHYDYWSDKVRRSILMDSKADLLMYGNGERAIIDVMHRLAKGEKIHEITDVRGTAFIINKHNKASKAQFIEIASNDVDTVGRVDPIINPYVMTEDIDGCEVEKEKGNSLAQYQNFQKEIVSKPVVREGDQLDKDTQIIQLKPVPSKAIKHKLPPRELAVIRLPSFEEVADDHVLYAHANRILHLETNPGNARALVQRHGERDVWINPPPIPLTTEEMDYVFDLPYARLPHSAYGDARFPAFDMIKFS | not soluble |
| MKLYMSVDMEGISGLPDDTFVDSGKRNYERGRLIMTEEANYCIAEAFNSGCTEVLVNDSHSKMNNLMVEKLHPEADLISGDVKPFSMVEGLDDTFRGALFLGYHARASTPGVMSHSMIFGVRHFYINDRPVGELGLNAYVAGYYDVPVLMVAGDDRAAKEAEELIPNVTTAAVKQTISRSAVKCLSPAKRGRLLTEKTAFALQNKDKVKPLTPPDRPVLSIEFANYGQAEWANLMPGTEIKTGTTTVQFQAKDMLEAYQAMLVMTELAMRTSFC | soluble |
